Experimental data as given in US20220033508A1 (ADC THERAPEUTICS, published 2022).
Where a chain is given by its changes, count along the chain named.

T1: Recombinant human extracellular domain of IL13RA2-6His (27-343) (human, UniProt Q14627 27-343)
T1 construct: also called Human IL13RA2-6His; human IL13Rα2
T1 sequence: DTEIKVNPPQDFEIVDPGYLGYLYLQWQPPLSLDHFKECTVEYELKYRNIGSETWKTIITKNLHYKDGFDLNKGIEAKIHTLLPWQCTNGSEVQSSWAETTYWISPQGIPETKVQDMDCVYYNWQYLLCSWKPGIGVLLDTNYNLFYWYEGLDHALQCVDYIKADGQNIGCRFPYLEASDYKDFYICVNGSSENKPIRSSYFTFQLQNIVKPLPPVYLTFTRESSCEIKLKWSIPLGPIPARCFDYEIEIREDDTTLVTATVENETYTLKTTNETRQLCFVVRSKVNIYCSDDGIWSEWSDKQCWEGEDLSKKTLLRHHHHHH

T2: IL13RA2 on NCI-H1299 cells (human, UniProt Q14627)
T2 construct: cell-surface protein on NCI-H1299 cells; Cell-borne form of the target; It is kept apart from m1, which is the recombinant His-tagged extracellular domain; The sheet's title names the antibodies 'anti-IL13RA2 IgG' and the cells 'NCI-H1299 cells'; also called IL13Rα2; Interleukin-13 receptor subunit alpha-2
T2 sequence (receptor chain, looked up): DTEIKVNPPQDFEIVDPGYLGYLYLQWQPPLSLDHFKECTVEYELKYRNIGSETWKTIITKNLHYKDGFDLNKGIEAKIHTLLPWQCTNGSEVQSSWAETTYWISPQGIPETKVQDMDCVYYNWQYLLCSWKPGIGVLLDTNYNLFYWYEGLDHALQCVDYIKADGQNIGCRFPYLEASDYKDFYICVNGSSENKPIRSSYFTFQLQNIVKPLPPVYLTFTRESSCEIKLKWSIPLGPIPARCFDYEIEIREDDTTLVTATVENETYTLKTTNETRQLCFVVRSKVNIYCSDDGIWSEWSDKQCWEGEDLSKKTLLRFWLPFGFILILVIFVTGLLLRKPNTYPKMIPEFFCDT

B1: Clone 47 VHA / Clone 47 VKA (HuCL47) (antibody, V domains shown)
VH: QVQLVQSGAEVKKPGASVKVSCKASGYTFSNYLMNWVRQAPGQGLEWMGRIDPYDGDIDYNQNFKDRVTITRDTSASTAYMELSSLRSEDTAVYYCARGYGTAYGVDYWGQGTSVTVSS
VL: EIVLTQSPATLSLSPGERATLSCRASESVDNYGISFMNWYQQKPGQAPRLLIYAASRQGSGIPDRFSGSGSGTDFTLTISRLEPEDFAVYYCQQSKEVPWTFGGGTKLEIK
notes: Expressed as IgG in Expi293 cells; also called VHA/VKA; VHANKA
B2: Clone 47 VHA3 / Clone 47 VKA2 (antibody, V domains shown)
VH: B1 VH with T74K
VL: B1 VL with Y91F
notes: Expressed as IgG in Expi293 cells; also called VHA3/VKA2
B3: Clone 47 VHAback / Clone 47 VKA1 (antibody, V domains shown)
VH: B1 VH with M48I, V68A, I70L, R72V, T74K
VL: B1 VL with Y40F
notes: Expressed as IgG in Expi293 cells; also called VHAback/VKA1
B4: Clone 47 VHA / Clone 47 VKA1 (antibody, V domains shown)
VH: B1 VH
VL: B1 VL with Y40F
notes: Expressed as IgG in Expi293 cells; also called VHA/VKA1
B5: Clone 47 VHAback / Clone 47 VKA (antibody, V domains shown)
VH: B1 VH with M48I, V68A, I70L, R72V, T74K
VL: B1 VL
notes: Expressed as IgG in Expi293 cells; also called VHAback/VKA
B6: Clone 47 VHA / Clone 47 VKA2 (antibody, V domains shown)
VH: B1 VH
VL: B1 VL with Y91F
notes: Expressed as IgG in Expi293 cells; also called VHA/VKA2
B7: chimeric (Ch) Clone 47 (antibody, V domains shown)
VH: QVQLQQPGAELVRPGASVKLSCKASGYTFSNYLMNWVKQRPEQDLDWIGRIDPYDGDIDYNQNFKDKAILTVDKSSSTAYMQLSSLTSEDSAVYYCARGYGTAYGVDYWGQGTSVTVSS
VL: not shown
notes: Chimeric antibody with the murine Clone 47 variable domains; also called chimeric Clone 47

Assays:
[1] = molecular target: T1, Recombinant human extracellular domain …; assay: ELISA on plate-coated human IL13RA2-6His, anti-human-HRP detection
Protocol: (§1) Recombinant human extracellular domain of IL13RA2-6His (27-343) was obtained from Sino biological (Ref 10350-H08H). 50 μl of 1 μg/ml of human IL13RA2 in PBS was coated overnight at 4° C. on MaxiSorp ELISA plates. The following morning, the plate is washed with PBS/Tween20 0.02%. Each well has 200 μl of Superblock blocking buffer added and incubated at room temperature for 1 hour in an orbital shaker at 120 rpm. A dilution series of each antibody was prepared, with dilutions of each antibody variant in PBS/Tween20 0.02%. The antibodies are added to blocked antigen coated plates and incubated for 1 hour at room temperature with 120 rpm shaking on an orbital shaker. Plates are then washed 3-times with 200 μl of PBS/Tween20 0.02% and 75 μl of secondary antibody (Mouse anti-human-HRP diluted 1 in 4000 in PBS/Tween20 0.02%) is added to the wells and incubated for 1 hour at room temperature with 120 rpm shaking on an orbital shaker. Plates are then washed 3-times with 200 μl of PBS/Tween20 0.02%. To develop the ELISA, 75 μl of TMB-Turbo substrate is added to the wells and incubated at room temperature with 120 rpm shaking on an orbital shaker till a blue colour develops, the reaction is then stopped with the addition of 75 μl of 0.6 N HCl. Plates are read on the Envision at […] and curves are analysed using GraphPad prism software

[2] = molecular target: T1, Recombinant human extracellular domain …; assay: ELISA on coated IL13RA2-6His; antibody kept 8 days, column headed 'EC50 45° C.'
Protocol: as §1
(§2) Binding of the variants listed in Table 3 to IL13Rα2 was also assessed by ELISA following incubation at 4° C. or 45° C. for 8 days. […] These binding data also indicate that the humanised variants VHAback/VKA and VHA3/VKA2 have improved stability properties as compared to the chimeric Clone 47.

[3] = molecular target: T2, IL13RA2 on NCI-H1299 cells; assay: flow cytometry on NCI-H1299 cells, Alexa Fluor 488 anti-human IgG detection
Protocol: NCI-H1299 cells were diluted to 2×10⁶ cells/mL in assay buffer (0.1% BSA/0.1% Sodium Azide in PBS) and 50 μL added per well to a 96-well-plate. The HuCL47 and Clone 47 antibodies were diluted to a top concentration of 40 μg/ml (266 nM) of and diluted 1:4 for 7 dilutions as well as buffer only. 50 μL of the antibody were added to 50 μL of cells to give a concentration of 20 μg/ml. The plate was incubated for 1 hour at room temperature, after which the plate was centrifuged and washed three times. A Goat F(ab′)2 Anti-Human IgG Alexa Fluor 488-conjugated antibody was used (Life Technologies Cat. No. H10120) at a 1 in 250 dilution for detection in assay buffer, 50 μL added to cells and after one hour of incubation at room temperature the cells centrifuged and washed as before, fixed with 7.5% formaldehyde and analysed on the Flow cytometer, with data analysis carried out using FlowJo.
Chimeric clone 47 and HuCL47 were compared in terms of their: binding to NCI-H1299 Cells by standard FACS analysis using NCI-H1299 cells and unmodified purified antibodies. In vitro cytotoxicity analysis was performed on both A375 and NCI-1299 cells, using a pyrollobenzodiazepine dimer (PBD) warhead conjugated to chimeric clone 47 and HuCL47.

[4] = molecular target: T1, Recombinant human extracellular domain …; assay: Biacore (SPR), IL13RA2-6His on the sensor, bivalent antibody in solution
Excerpt: (§3) Biacore analysis using Human IL13RA2-6His coated sensor was used to calculate apparent affinity constants of the Clone 47 variants. A dilution series of the antibody variants were applied to the IL13RA2 sensor surface for 600 seconds […] to calculate the association constant Ka and buffer (HBS-EP+) was then applied for 1800 seconds to calculate the dissociation constant Kd. The ratio of the two constants will provide an apparent KD as the bivalency of the antibody will affect the binding kinetics.
(§4) Binding affinity of a chimeric (Ch) Clone 47 and select humanised variants to human IL13Rα2 was measured on Biacore.

[5] = molecular target: T1, Recombinant human extracellular domain …; assay: ELISA on coated IL13RA2-6His; antibody kept 8 days, column headed 'EC50 4° C.'
Protocol: as §1, §2

[6] = molecular target: T1, Recombinant human extracellular domain …; assay: Biacore (SPR), apparent KD, IL13RA2-6His on the sensor, bivalent antibody in solution
Excerpt: as §3, §4

Binder	EC50 (read off the curve) [1]	EC50 [2]	EC50 (read off the curve) [3]	koff [4]	kon [4]	EC50 [5]	Kd [6]
B1	~0.05 nM	0.0184 µg/mL	~0.04 µg/mL	1.12e-05 s⁻¹	112000 M⁻¹ s⁻¹	0.0178 µg/mL	0.1 nM
B2		0.0123 µg/mL				0.0258 µg/mL	
B3		0.0128 µg/mL				1.01 µg/mL	
B4		0.0123 µg/mL		2.65e-05 s⁻¹	124000 M⁻¹ s⁻¹	0.0581 µg/mL	0.21 nM
B5		0.0164 µg/mL		5.3e-06 s⁻¹	115000 M⁻¹ s⁻¹	0.0456 µg/mL	0.05 nM
B6		0.0204 µg/mL		8.2e-06 s⁻¹	131000 M⁻¹ s⁻¹	0.148 µg/mL	0.06 nM
B7	~0.04 nM	0.0168 µg/mL	~0.04 µg/mL	6.58e-05 s⁻¹	125000 M⁻¹ s⁻¹	0.0777 µg/mL	0.53 nM
